Experimental findings from patent US20140315800A1 (published 2014) are described below.

Positions of bridges follow the written chain, without caps; N, C: chain ends. No end group written: not given here. *: point of attachment. βGlcNAc = CC(=O)N[C@@H]1[C@@H](O)[C@H](O)[C@@H](CO)O[C@H]1*; diGlcNAc = diGlcNAc sugar chain; disialo = disialo sugar chain; GlcNAc = N-acetylglucosamine

The target of assay [1] is T1, SSTR4 (Human, UniProt P31391 1-388). Description: cell-based or functional assay.
For assay [2], the target named is T2, SSTR1 (Human, UniProt P30872 1-391). Description: radioligand competition, membranes. On the technique in general: In a radioligand displacement assay an active substance lowers the binding of a labelled ligand.
T2 sequence (P30872 whole entry): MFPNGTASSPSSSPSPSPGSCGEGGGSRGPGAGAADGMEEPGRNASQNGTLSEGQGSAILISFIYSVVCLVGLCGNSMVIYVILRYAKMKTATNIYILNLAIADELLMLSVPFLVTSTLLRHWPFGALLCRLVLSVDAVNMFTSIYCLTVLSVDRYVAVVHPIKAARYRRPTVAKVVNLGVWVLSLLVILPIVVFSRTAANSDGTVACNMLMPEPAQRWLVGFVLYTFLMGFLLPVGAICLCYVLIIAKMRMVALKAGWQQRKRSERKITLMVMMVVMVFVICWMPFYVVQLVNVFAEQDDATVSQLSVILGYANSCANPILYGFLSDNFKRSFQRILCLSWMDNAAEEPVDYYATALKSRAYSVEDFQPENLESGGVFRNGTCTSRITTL
Assay [3] has as its target T3, SSTR3 (Human, UniProt P32745 1-418). Description: cell-based or functional assay.
Assay [4] addresses T1, SSTR4. Description: cell-based or functional assay. The source holds these as a separate data set.
In assay [5] the target is T2, SSTR1. Briefly: cell-based or functional assay.
The target of assay [6] is SSTR2 (Human, UniProt P30874 1-369). Description: cell-based or functional assay.
SSTR2, sequence (P30874 whole entry): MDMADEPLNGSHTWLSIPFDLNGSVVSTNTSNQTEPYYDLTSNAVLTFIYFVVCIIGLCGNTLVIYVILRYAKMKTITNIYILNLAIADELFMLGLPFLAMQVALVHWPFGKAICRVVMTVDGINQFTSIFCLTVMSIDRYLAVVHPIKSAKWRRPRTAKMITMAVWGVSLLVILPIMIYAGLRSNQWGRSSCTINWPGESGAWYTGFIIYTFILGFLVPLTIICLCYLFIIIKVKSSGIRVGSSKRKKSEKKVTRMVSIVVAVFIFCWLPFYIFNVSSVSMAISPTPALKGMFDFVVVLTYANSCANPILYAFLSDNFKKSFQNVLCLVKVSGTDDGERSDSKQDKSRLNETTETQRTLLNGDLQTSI
The target in assay [7] is T3, SSTR3. Briefly: radioligand competition, membranes.
The target of assay [8] is SSTR5 (Human, UniProt P35346 1-364). Description: radioligand competition, membranes.
SSTR5, sequence (P35346 whole entry): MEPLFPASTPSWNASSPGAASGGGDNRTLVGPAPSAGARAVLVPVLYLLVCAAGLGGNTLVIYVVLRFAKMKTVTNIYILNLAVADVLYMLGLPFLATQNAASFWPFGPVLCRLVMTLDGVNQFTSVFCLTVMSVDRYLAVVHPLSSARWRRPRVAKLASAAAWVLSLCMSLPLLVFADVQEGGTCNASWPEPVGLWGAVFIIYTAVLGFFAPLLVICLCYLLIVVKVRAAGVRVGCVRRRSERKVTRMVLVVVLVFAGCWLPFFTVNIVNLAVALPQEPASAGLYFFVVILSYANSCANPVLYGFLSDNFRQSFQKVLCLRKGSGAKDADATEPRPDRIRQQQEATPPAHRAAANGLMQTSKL
In assay [9] the target is SSTR1-SSTR5. Briefly: radioligand competition, membranes.

T3 sequence (P32745 whole entry): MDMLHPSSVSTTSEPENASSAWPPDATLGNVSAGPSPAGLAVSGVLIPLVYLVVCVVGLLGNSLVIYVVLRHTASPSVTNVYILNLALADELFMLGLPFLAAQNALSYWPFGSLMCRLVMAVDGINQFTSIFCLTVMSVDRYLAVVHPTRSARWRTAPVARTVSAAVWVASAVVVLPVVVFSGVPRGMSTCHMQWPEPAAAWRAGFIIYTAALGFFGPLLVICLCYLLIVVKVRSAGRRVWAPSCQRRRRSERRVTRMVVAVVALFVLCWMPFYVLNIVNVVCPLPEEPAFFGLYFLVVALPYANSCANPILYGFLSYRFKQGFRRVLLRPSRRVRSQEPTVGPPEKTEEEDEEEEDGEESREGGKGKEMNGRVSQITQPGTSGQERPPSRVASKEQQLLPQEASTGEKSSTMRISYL
T1 sequence (P31391 whole entry): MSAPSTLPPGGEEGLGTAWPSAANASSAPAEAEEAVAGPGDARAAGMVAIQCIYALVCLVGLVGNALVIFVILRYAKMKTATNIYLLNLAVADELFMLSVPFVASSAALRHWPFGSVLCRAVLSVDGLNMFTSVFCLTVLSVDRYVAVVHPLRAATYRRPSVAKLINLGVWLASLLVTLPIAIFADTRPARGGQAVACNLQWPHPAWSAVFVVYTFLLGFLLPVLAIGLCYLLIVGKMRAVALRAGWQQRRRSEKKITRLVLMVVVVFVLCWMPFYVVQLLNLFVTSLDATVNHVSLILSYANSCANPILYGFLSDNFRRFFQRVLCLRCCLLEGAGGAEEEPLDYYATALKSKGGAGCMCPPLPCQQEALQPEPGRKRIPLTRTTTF

Take C(disialo)RKAGCKNFFWKTFTSC (disulfide 6-17) [C(disialo)-R-K-SRIF14]: in assay [1], the “IC50 of cAMP production suppression (agonist activity)” value was 0.05 nM.

B1: 3C(disialo)-R-K-SRIF14 (peptide)
peptide: CCCRKAGCKNFFWKTFTSC
modifications: three N-terminal Cys each with a disialo sugar chain (Cys-Cys-Cys-Arg-Lys- added to SRIF14); disulfide Cys17-Cys28 (SRIF28 numbering)
The Ki is a dissociation constant, usually derived from enzyme kinetics or from competition with a known ligand. A lower Ki goes with a stronger hold on the target. B1: in assay [2], the affinity corresponds to a Ki of 270 nM. This lies in the sub-micromolar range.

As for C(disialo)KAGCKNFFWKTFTSC (disulfide 5-16) [C(disialo)-K-SRIF14], the “IC50 of agonist activity (cAMP)” value in [3] amounted to 0.1 nM.

B2: S1-5C(disialo)-SRIF28 (peptide)
peptide: CCCCCANSNPAMAPRERKAGCKNFFWKTFTSC
modifications: Ser 1 replaced by five consecutive Cys each with a disialo sugar chain; disulfide Cys17-Cys28 (SRIF28 numbering)
As to B2, the “IC50 of agonist activity (cAMP)” value in assay [4] came to 0.27 nM; in assay [5], 18 nM; in assay [3], 2 nM; in [6], 0.81 nM.

B3: C(disialo)-SRIF14 (peptide)
peptide: CAGCKNFFWKTFTSC
modifications: disialo sugar chain on Cys added at the N-terminus of SRIF14; disulfide Cys17-Cys28 (SRIF28 numbering)
Consider B3, for which, in [4], the “IC50 of agonist activity (cAMP)” value is 0.1 nM. C(βGlcNAc)ANSNPAMAPRERKAGCKNFFWKTFTSC (disulfide 17-28) [S1C(GlcNAc)-SRIF28]: in [6], the “IC50 of agonist activity (cAMP)” value is 0.04 nM. For SANSC(disialo)PAMC(disialo)PRERKAGCKNFFWKTFTSC (disulfide 17-28) [N5C(disialo)•A9C(disialo)-SRIF28], in [7], the binding result was “binds”. Broadly, the IC50 is the point on the concentration scale where inhibition reaches its midpoint. Low values mean inhibition by little substance, high ones a need for much substance. Turning to SANSNPAMAPRERKAGCKNFFWKTFC(disialo sugar chain)SC (disulfide 17-28) [T26C(disialo)-SRIF28], the IC50 in [8] came to 400 nM.

With C(disialo sugar chain)ANSC(disialo sugar chain)PAMAPRERKAGCKNFFWKTFTSC (disulfide 17-28) [S1C(disialo)•N5C(disialo)-SRIF28], the ratio of Ki to the Ki of unglycosylated SRIF14 in assay [9] is 15.7. Turning to C(disialo)ANSNPAMAPRERKAGCKC(GlcNAc)FFWKTFTSC (disulfide 17-28) [S1C(disialo)•N19C(GlcNAc)-SRIF28], the “IC50 of agonist activity (cAMP)” value in [6] came to 0.08 nM.

As for C(diGlcNAc)ANSNPAMAPRERKAGCKNFFWKTFTSC (disulfide 17-28) [S1C(diGlcNAc)-SRIF28], in assay [4], the “IC50 of agonist activity (cAMP)” value stood at 0.05 nM. C(disialo)C(disialo)C(disialo)C(disialo)C(disialo)C(disialo)C(disialo)C(disialo)C(disialo)C(disialo)ANSNPAMAPRERKAGCKNFFWKTFTSC (disulfide 26-37) [S1-10C(disialo)-SRIF28]: the IC50 in assay [8] stood at 34.8 nM.

B4: S1-3C(asialo)-SRIF28 (peptide)
peptide: CCCANSNPAMAPRERKAGCKNFFWKTFTSC
modifications: Ser 1 replaced by three consecutive Cys each with an asialo sugar chain; disulfide Cys17-Cys28 (SRIF28 numbering)
B4: the “IC50 of agonist activity (cAMP)” value in assay [4] stood at 0.1 nM.
